In patent US20140105889A1 (published 2014):

T1: human FcγRIIb (human, UniProt P31994 43-217, limits assumed)
T1 construct: also called FcgRIIb; FcγIIB
T1 sequence: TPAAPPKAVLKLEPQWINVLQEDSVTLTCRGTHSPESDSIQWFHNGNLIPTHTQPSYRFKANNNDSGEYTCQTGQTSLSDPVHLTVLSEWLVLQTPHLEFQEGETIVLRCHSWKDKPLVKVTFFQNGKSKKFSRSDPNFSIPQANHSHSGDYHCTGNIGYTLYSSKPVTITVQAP

T2: human FcγRIIa type H (human, UniProt P12318 36-217)
T2 construct: also called FcgRIIaH; FcγRIIa(H)
T2 sequence: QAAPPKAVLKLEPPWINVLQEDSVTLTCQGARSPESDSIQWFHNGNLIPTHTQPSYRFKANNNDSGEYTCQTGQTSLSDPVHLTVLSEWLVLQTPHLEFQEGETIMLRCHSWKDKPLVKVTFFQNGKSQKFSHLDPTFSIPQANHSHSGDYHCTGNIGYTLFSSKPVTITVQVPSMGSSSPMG


Tests used:
Test in all cases: SPR (Biacore); binding amount divided by that of control IL6R-BF648/IL6R-L, x100
[1] = target: T1, human FcγRIIb
Description: (§1) According to the following method, relative binding activities were calculated for the results of analyzing interactions with the respective FcγRs.

[2] = target: T3, human FcγRIa (human, UniProt P12314 16-292, limits assumed)
T3 construct: also called FcgRIa; CD64
T3 sequence (P12314 16-292 limits assumed): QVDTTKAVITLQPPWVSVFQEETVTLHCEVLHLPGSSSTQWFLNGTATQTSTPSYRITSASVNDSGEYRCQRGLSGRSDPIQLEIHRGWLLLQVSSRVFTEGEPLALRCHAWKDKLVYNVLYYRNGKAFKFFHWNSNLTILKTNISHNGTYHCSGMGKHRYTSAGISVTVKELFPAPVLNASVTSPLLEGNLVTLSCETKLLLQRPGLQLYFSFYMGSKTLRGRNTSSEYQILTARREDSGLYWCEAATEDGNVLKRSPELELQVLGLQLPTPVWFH
Description: as §1

[3] = target: T2, human FcγRIIa type H
Description: as §1

| Binder | relative binding activity [1] | relative binding activity [2] | relative binding activity [3] |
| --- | --- | --- | --- |
| IL6R-BP188/IL6R-L (antibody, human IgG1, The common L chain is IL6R-L; copies: 2 + 2) heavy: QVQLQESGPGLVKPSETLSLTCAVSGHSISHDHAWSWVRQPPGEGLEWIGFISYSGITNYNPSLQGRVTISRDNSKNTLYLQMNSLRAEDTAVYYCARSLARTTAMDYWGEGTLVTVSSASTKGPSVFPLAPSSKSTSGGTAALGCLVKDYFPEPVTVSWNSGALTSGVHTFPAVLQSSGLYSLSSVVTVPSSSLGTQTYICNVNHKPSNTKVDKKVEPKSCDKTHTCPPCPAPDLLGDDSVFLFPPKPKDTLMISRTPEVTCVVVDVSDEDGEVKFNWYVDGVEVHNAKTKPREEQYNSTYRVVSVLTVLHQDWLNGKEYKCKVSNKALPKPIEKTISKAKGQPREPQVYTLPPSRDELTKNQVSLTCLVKGFYPSDIAVEWESNGQPENNYKTTPPVLDSDGSFFLYSKLTVDKSRWQQGNVFSCSVMHEALHNHYTQESLSLSP light: DIQMTQSPSSLSASVGDRVTITCRASQDISSYLNWYQQKPGKAPKLLIYYTSRLHSGVPSRFSGSGSGTDFTFTISSLQPEDIATYYCQQGNTLPYTFGQGTKVEIK | 179 % of IL6R-BF648/IL6R-L | 74 % of IL6R-BF648/IL6R-L | – |
| IL6R-BP205/IL6R-L (antibody, human IgG1, The common L chain is IL6R-L; copies: 2 + 2) heavy: QVQLQESGPGLVKPSETLSLTCAVSGHSISHDHAWSWVRQPPGEGLEWIGFISYSGITNYNPSLQGRVTISRDNSKNTLYLQMNSLRAEDTAVYYCARSLARTTAMDYWGEGTLVTVSSASTKGPSVFPLAPSSKSTSGGTAALGCLVKDYFPEPVTVSWNSGALTSGVHTFPAVLQSSGLYSLSSVVTVPSSSLGTQTYICNVNHKPSNTKVDKKVEPKSCDKTHTCPPCPAPDLLGGDSVFLFPPKPKDTLMISRTPEVTCVVVDVSHEDGEVKFNWYVDGVEVHNAKTKPREEQDNSTYRVVSVLTVLHQDWLNGKEYKCKVSNKALPRPIEKTISKAKGQPREPQVYTLPPSRDELTKNQVSLTCLVKGFYPSDIAVEWESNGQPENNYKTTPPVLDSDGSFFLYSKLTVDKSRWQQGNVFSCSVMHEALHNHYTQESLSLSP light: DIQMTQSPSSLSASVGDRVTITCRASQDISSYLNWYQQKPGKAPKLLIYYTSRLHSGVPSRFSGSGSGTDFTFTISSLQPEDIATYYCQQGNTLPYTFGQGTKVEIK | 167 % of IL6R-BF648/IL6R-L | 97 % of IL6R-BF648/IL6R-L | 108 % of IL6R-BF648/IL6R-L |
| IL6R-BP204/IL6R-L (antibody, human IgG1, The common L chain is IL6R-L; copies: 2 + 2) heavy: QVQLQESGPGLVKPSETLSLTCAVSGHSISHDHAWSWVRQPPGEGLEWIGFISYSGITNYNPSLQGRVTISRDNSKNTLYLQMNSLRAEDTAVYYCARSLARTTAMDYWGEGTLVTVSSASTKGPSVFPLAPSSKSTSGGTAALGCLVKDYFPEPVTVSWNSGALTSGVHTFPAVLQSSGLYSLSSVVTVPSSSLGTQTYICNVNHKPSNTKVDKKVEPKSCDKTHTCPPCPAPDLLGGDSVFLFPPKPKDTLMISRTPEVTCVVVDVSHEDGEVKFNWYVDGVEVHNAKTKPREEQYNSTYRVVSVLTVLHQDWLNGKEYKCKVSNAALPRPIEKTISKAKGQPREPQVYTLPPSRDELTKNQVSLTCLVKGFYPSDIAVEWESNGQPENNYKTTPPVLDSDGSFFLYSKLTVDKSRWQQGNVFSCSVMHEALHNHYTQESLSLSP light: DIQMTQSPSSLSASVGDRVTITCRASQDISSYLNWYQQKPGKAPKLLIYYTSRLHSGVPSRFSGSGSGTDFTFTISSLQPEDIATYYCQQGNTLPYTFGQGTKVEIK | 165 % of IL6R-BF648/IL6R-L | 110 % of IL6R-BF648/IL6R-L | 137 % of IL6R-BF648/IL6R-L |
| IL6R-BP193/IL6R-L (antibody, human IgG1, The common L chain is IL6R-L; copies: 2 + 2) heavy: QVQLQESGPGLVKPSETLSLTCAVSGHSISHDHAWSWVRQPPGEGLEWIGFISYSGITNYNPSLQGRVTISRDNSKNTLYLQMNSLRAEDTAVYYCARSLARTTAMDYWGEGTLVTVSSASTKGPSVFPLAPSSKSTSGGTAALGCLVKDYFPEPVTVSWNSGALTSGVHTFPAVLQSSGLYSLSSVVTVPSSSLGTQTYICNVNHKPSNTKVDKKVEPKSCDKTHTCPPCPAPDLLGGDSVFLFPPKPKDTLMISRTPEVTCVVVDVSDEDGEVKFNWYVDGVEVHNAKTKPREEQYNSTYRVVSVLTVLHQDWLNGKEYKCKVSNKALPKPIEKTISKAKGQPREPQVYTLPPSRDELTKNQVSLTCLVKGFYPSDIAVEWESNGQPENNYKTTPPVLDSDGSFFLYSKLTVDKSRWQQGNVFSCSVMHEALHNHYTQESLSLSP light: DIQMTQSPSSLSASVGDRVTITCRASQDISSYLNWYQQKPGKAPKLLIYYTSRLHSGVPSRFSGSGSGTDFTFTISSLQPEDIATYYCQQGNTLPYTFGQGTKVEIK | 173 % of IL6R-BF648/IL6R-L | 113 % of IL6R-BF648/IL6R-L | 154 % of IL6R-BF648/IL6R-L |
| IL6R-BP214/IL6R-L (antibody, copies: 2 + 2) heavy: QVQLQESGPGLVKPSETLSLTCAVSGHSISHDHAWSWVRQPPGEGLEWIGFISYSGITNYNPSLQGRVTISRDNSKNTLYLQMNSLRAEDTAVYYCARSLARTTAMDYWGEGTLVTVSSASTKGPSVFPLAPSSKSTSGGTAALGCLVKDYFPEPVTVSWNSGALTSGVHTFPAVLQSSGLYSLSSVVTVPSSSLGTQTYICNVNHKPSNTKVDKKVEPKSCDKTHTCPPCPAPDYLGDDSVFLFPPKPKDTLMISRTPEVTCVVVDVSHEDPEVKFNWYVDGVEVHNAKTKPREEQDNSTYRVVSVLTVLHQDWLNGKEYKCKVSNDALPKPIEKTISKAKGQPREPQVYTLPPSRDELTKNQVSLTCLVKGFYPSDIAVEWESNGQPENNYKTTPPVLDSDGSFFLYSKLTVDKSRWQQGNVFSCSVMHEALHNHYTQESLSLSP light: DIQMTQSPSSLSASVGDRVTITCRASQDISSYLNWYQQKPGKAPKLLIYYTSRLHSGVPSRFSGSGSGTDFTFTISSLQPEDIATYYCQQGNTLPYTFGQGTKVEIK | 174 % of IL6R-BF648/IL6R-L | 36 % of IL6R-BF648/IL6R-L | 285 % of IL6R-BF648/IL6R-L |

Results, then the binder that gave them:

| relative binding activity [1] | relative binding activity [2] | relative binding activity [3] | Binder |
| --- | --- | --- | --- |
| 188 % of IL6R-BF648/IL6R-L | 60 % of IL6R-BF648/IL6R-L | 517 % of IL6R-BF648/IL6R-L | IL6R-BP200/IL6R-L (antibody, copies: 2 + 2) heavy: QVQLQESGPGLVKPSETLSLTCAVSGHSISHDHAWSWVRQPPGEGLEWIGFISYSGITNYNPSLQGRVTISRDNSKNTLYLQMNSLRAEDTAVYYCARSLARTTAMDYWGEGTLVTVSSASTKGPSVFPLAPSSKSTSGGTAALGCLVKDYFPEPVTVSWNSGALTSGVHTFPAVLQSSGLYSLSSVVTVPSSSLGTQTYICNVNHKPSNTKVDKKVEPKSCDKTHTCPPCPAPDYLGDDSVFLFPPKPKDTLMISRTPEVTCVVVDVSHEDGEVKFNWYVDGVEVHNAKTKPREEQYNSTYRVVSVLTVLHQDWLNGKEYKCKVSNDALPRPIEKTISKAKGQPREPQVYTLPPSRDELTKNQVSLTCLVKGFYPSDIAVEWESNGQPENNYKTTPPVLDSDGSFFLYSKLTVDKSRWQQGNVFSCSVMHEALHNHYTQESLSLSP light: DIQMTQSPSSLSASVGDRVTITCRASQDISSYLNWYQQKPGKAPKLLIYYTSRLHSGVPSRFSGSGSGTDFTFTISSLQPEDIATYYCQQGNTLPYTFGQGTKVEIK |
| 187 % of IL6R-BF648/IL6R-L | 57 % of IL6R-BF648/IL6R-L | 279 % of IL6R-BF648/IL6R-L | IL6R-BP210/IL6R-L (antibody, human IgG1, The common L chain is IL6R-L; copies: 2 + 2) heavy: QVQLQESGPGLVKPSETLSLTCAVSGHSISHDHAWSWVRQPPGEGLEWIGFISYSGITNYNPSLQGRVTISRDNSKNTLYLQMNSLRAEDTAVYYCARSLARTTAMDYWGEGTLVTVSSASTKGPSVFPLAPSSKSTSGGTAALGCLVKDYFPEPVTVSWNSGALTSGVHTFPAVLQSSGLYSLSSVVTVPSSSLGTQTYICNVNHKPSNTKVDKKVEPKSCDKTHTCPPCPAPELLGDDSVFLFPPKPKDTLMISRTPEVTCVVVDVSDEDGEVKFNWYVDGVEVHNAKTKPREEQYNSTYRVVSVLTVLHQDWLNGKEYKCKVSNKALPRPIEKTISKAKGQPREPQVYTLPPSRDELTKNQVSLTCLVKGFYPSDIAVEWESNGQPENNYKTTPPVLDSDGSFFLYSKLTVDKSRWQQGNVFSCSVMHEALHNHYTQESLSLSP light: DIQMTQSPSSLSASVGDRVTITCRASQDISSYLNWYQQKPGKAPKLLIYYTSRLHSGVPSRFSGSGSGTDFTFTISSLQPEDIATYYCQQGNTLPYTFGQGTKVEIK |
| 186 % of IL6R-BF648/IL6R-L | 57 % of IL6R-BF648/IL6R-L | 359 % of IL6R-BF648/IL6R-L | IL6R-BP201/IL6R-L (antibody, human IgG1, The common L chain is IL6R-L; copies: 2 + 2) heavy: QVQLQESGPGLVKPSETLSLTCAVSGHSISHDHAWSWVRQPPGEGLEWIGFISYSGITNYNPSLQGRVTISRDNSKNTLYLQMNSLRAEDTAVYYCARSLARTTAMDYWGEGTLVTVSSASTKGPSVFPLAPSSKSTSGGTAALGCLVKDYFPEPVTVSWNSGALTSGVHTFPAVLQSSGLYSLSSVVTVPSSSLGTQTYICNVNHKPSNTKVDKKVEPKSCDKTHTCPPCPAPDLLGDDSVFLFPPKPKDTLMISRTPEVTCVVVDVSHEDGEVKFNWYVDGVEVHNAKTKPREEQYNSTYRVVSVLTVLHQDWLNGKEYKCKVSNKALPRPIEKTISKAKGQPREPQVYTLPPSRDELTKNQVSLTCLVKGFYPSDIAVEWESNGQPENNYKTTPPVLDSDGSFFLYSKLTVDKSRWQQGNVFSCSVMHEALHNHYTQESLSLSP light: DIQMTQSPSSLSASVGDRVTITCRASQDISSYLNWYQQKPGKAPKLLIYYTSRLHSGVPSRFSGSGSGTDFTFTISSLQPEDIATYYCQQGNTLPYTFGQGTKVEIK |
| 185 % of IL6R-BF648/IL6R-L | 43 % of IL6R-BF648/IL6R-L | 285 % of IL6R-BF648/IL6R-L | IL6R-BP202/IL6R-L (antibody, human IgG1, The common L chain is IL6R-L; copies: 2 + 2) heavy: QVQLQESGPGLVKPSETLSLTCAVSGHSISHDHAWSWVRQPPGEGLEWIGFISYSGITNYNPSLQGRVTISRDNSKNTLYLQMNSLRAEDTAVYYCARSLARTTAMDYWGEGTLVTVSSASTKGPSVFPLAPSSKSTSGGTAALGCLVKDYFPEPVTVSWNSGALTSGVHTFPAVLQSSGLYSLSSVVTVPSSSLGTQTYICNVNHKPSNTKVDKKVEPKSCDKTHTCPPCPAPELLGDDSVFLFPPKPKDTLMISRTPEVTCVVVDVSHEDGEVKFNWYVDGVEVHNAKTKPREEQYNSTYRVVSVLTVLHQDWLNGKEYKCKVSNAALPRPIEKTISKAKGQPREPQVYTLPPSRDELTKNQVSLTCLVKGFYPSDIAVEWESNGQPENNYKTTPPVLDSDGSFFLYSKLTVDKSRWQQGNVFSCSVMHEALHNHYTQESLSLSP light: DIQMTQSPSSLSASVGDRVTITCRASQDISSYLNWYQQKPGKAPKLLIYYTSRLHSGVPSRFSGSGSGTDFTFTISSLQPEDIATYYCQQGNTLPYTFGQGTKVEIK |
